Results published in IntAct's records for PubMed 22668317.

B1: LPS-assembly protein LptD (Escherichia coli (strain K12)), P31554 (parent)
chain: MKKRIPTLLATMIATALYSQQGLAADLASQCMLGVPSYDRPLVQGDTNDLPVTINADHAKGDYPDDAVFTGSVDIMQGNSRLQADEVQLHQKEAPGQPEPVRTVDALGNVHYDDNQVILKGPKGWANLNTKDTNVWEGDYQMVGRQGRGKADLMKQRGENRYTILDNGSFTSCLPGSDTWSVVGSEIIHDREEQVAEIWNARFKVGPVPIFYSPYLQLPVGDKRRSGFLIPNAKYTTTNYFEFYLPYYWNIAPNMDATITPHYMHRRGNIMWENEFRYLSQAGAGLMELDYLPSDKVYEDEHPNDDSSRRWLFYWNHSGVMDQVWRFNVDYTKVSDPSYFNDFDNKYGSSTDGYATQKFSVGYAVQNFNATVSTKQFQVFSEQNTSSYSAEPQLDVNYYQNDVGPFDTRIYGQAVHFVNTRDDMPEATRVHLEPTINLPLSNNWGSINTEAKLLATHYQQTNLDWYNSRNTTKLDESVNRVMPQFKVDGKMVFERDMEMLAPGYTQTLEPRAQYLYVPYRDQSDIYNYDSSLLQSDYSGLFRDRTYGGLDRIASANQVTTGVTSRIYDDAAVERFNISVGQIYYFTESRTGDDNITWENDDKTGSLVWAGDTYWRISERWGLRGGIQYDTRLDNVATSNSSIEYRRDEDRLVQLNYRYASPEYIQATLPKYYSTAEQYKNGISQVGAVASWPIADRWSIVGAYYYDTNANKQADSMLGVQYSSCCYAIRVGYERKLNGWDNDKQHAVYDNAIGFNIELRGLSSNYGLGTQEMLRSNILPYQNTL
partner: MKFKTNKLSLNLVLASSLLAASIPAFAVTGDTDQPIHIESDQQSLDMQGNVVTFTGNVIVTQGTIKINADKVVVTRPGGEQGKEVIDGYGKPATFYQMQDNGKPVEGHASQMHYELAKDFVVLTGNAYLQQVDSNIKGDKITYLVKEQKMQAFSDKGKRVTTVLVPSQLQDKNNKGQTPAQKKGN

Variants of: B1
Conditions: with lpta_ecoli lptA

Effect of a mutation on the interaction, disrupting interaction:
C724S;C725S
C31S;C725S
C31S;C173S
